System: Escherichia coli TOP10
Experiment: shrunken log2 fold change of peptide-encoding DNA abundance (4.5 h post-induction vs induction); higher = less antimicrobial activity (less host growth inhibition)
Settings: time post-induction: 4.5 h; library: site-saturation at positions 5, 18, 19, 20
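Note: peptides expressed intracellularly from a pBAD plasmid library in pooled LB shake-flask culture, induced with 0.3% L-arabinose, DNA abundance read by NGS, three biological replicates, DESeq2 with apeglm shrinkage.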

| Sequence | shrunken log2 fold change |
| --- | --- |
| RRIRTRPPRLPRPRPRPFLEPRP | -0.417 |
| RRIRLRPPRLPRPRPRPCRHPRP | -0.601 |
| RRIRRRPPRLPRPRPRPPTQPRP | 0.678 |
| RRIRFRPPRLPRPRPRPGFEPRP | -0.0266 |
| RRIRGRPPRLPRPRPRPIYPPRP | 0.119 |
| RRIRCRPPRLPRPRPRPDVAPRP | 0.298 |
| RRIRQRPPRLPRPRPRPCRMPRP | -0.126 |
| RRIRRRPPRLPRPRPRPCWRPRP | 0.00446 |
| RRIRLRPPRLPRPRPRPCAIPRP | -0.218 |
| RRIRPRPPRLPRPRPRPMKEPRP | 0.104 |
| RRIRHRPPRLPRPRPRPTLFPRP | 0.267 |
| RRIRCRPPRLPRPRPRPSDDPRP | 0.334 |
| RRIRCRPPRLPRPRPRPVYEPRP | -0.342 |
| RRIRSRPPRLPRPRPRPIQDPRP | 0.00805 |
| RRIRERPPRLPRPRPRPANKPRP | -0.632 |
| RRIRCRPPRLPRPRPRPNDMPRP | -0.328 |
| RRIRERPPRLPRPRPRPHAVPRP | -0.34 |
| RRIRRRPPRLPRPRPRPASNPRP | 0.472 |
| RRIRTRPPRLPRPRPRPTPSPRP | 0.563 |
| RRIRTRPPRLPRPRPRPHLWPRP | 0.0316 |
| RRIRTRPPRLPRPRPRPWNEPRP | 0.00902 |

| Sequence | shrunken log2 fold change |
| --- | --- |
| RRIRVRPPRLPRPRPRPHSSPRP | -0.531 |
| RRIRRRPPRLPRPRPRPCTCPRP | -0.111 |
| RRIRHRPPRLPRPRPRPRMVPRP | -0.0236 |
| RRIRGRPPRLPRPRPRPAKVPRP | 0.431 |
| RRIRERPPRLPRPRPRPERSPRP | 0.149 |
| RRIRIRPPRLPRPRPRPPLNPRP | -0.227 |
| RRIRDRPPRLPRPRPRPTGKPRP | 0.0507 |
| RRIRFRPPRLPRPRPRPSHSPRP | -0.171 |
| RRIRARPPRLPRPRPRPHIGPRP | -0.175 |
| RRIRWRPPRLPRPRPRPIKYPRP | -0.744 |
| RRIRLRPPRLPRPRPRPIERPRP | -0.155 |
| RRIRPRPPRLPRPRPRPDWMPRP | -0.212 |
| RRIRLRPPRLPRPRPRPEPDPRP | 0.342 |
| RRIRSRPPRLPRPRPRPLCLPRP | 0.259 |
| RRIRRRPPRLPRPRPRPWFTPRP | 0.0255 |
| RRIRHRPPRLPRPRPRPASGPRP | 0.368 |
| RRIRYRPPRLPRPRPRPWPQPRP | 0.0526 |
| RRIRYRPPRLPRPRPRPLWPPRP | -0.135 |
| RRIRRRPPRLPRPRPRPICQPRP | 0.133 |
| RRIRNRPPRLPRPRPRPVCSPRP | -0.19 |
| RRIRMRPPRLPRPRPRPARWPRP | 1.49 |

| Sequence | shrunken log2 fold change |
| --- | --- |
| RRIRKRPPRLPRPRPRPPYLPRP | 0.0134 |
| RRIRTRPPRLPRPRPRPCWVPRP | -0.42 |
| RRIRIRPPRLPRPRPRPMLWPRP | 0.0197 |
| RRIRPRPPRLPRPRPRPWCWPRP | 0.233 |
| RRIRFRPPRLPRPRPRPAMQPRP | 0.109 |
| RRIRARPPRLPRPRPRPRMRPRP | 0.954 |
| RRIRNRPPRLPRPRPRPSTTPRP | -0.47 |
| RRIRVRPPRLPRPRPRPDQYPRP | -0.234 |
| RRIRYRPPRLPRPRPRPTLRPRP | -0.484 |
| RRIRIRPPRLPRPRPRPFGTPRP | -0.109 |
| RRIRYRPPRLPRPRPRPCFDPRP | -0.808 |
| RRIRLRPPRLPRPRPRPRICPRP | -0.237 |
| RRIRPRPPRLPRPRPRPALVPRP | 0.181 |
| RRIRMRPPRLPRPRPRPFTFPRP | -0.096 |
| RRIRFRPPRLPRPRPRPDAFPRP | -0.491 |
| RRIRKRPPRLPRPRPRPVSMPRP | 0.224 |
| RRIRHRPPRLPRPRPRPFIQPRP | -0.577 |
| RRIRMRPPRLPRPRPRPCNNPRP | 0.0654 |
| RRIRPRPPRLPRPRPRPNVMPRP | -0.341 |
| RRIRSRPPRLPRPRPRPIRMPRP | -0.109 |

— the supplement of paper PMC9112550, “Optimization of the antimicrobial peptide Bac7 by deep mutational scanning” (BMC Biology, 2022)
